Reference: patent publication US11534461B2, “High affinity merkel cell polyomavirus T antigen-specific TCRS and uses thereof” (priority 2016, dated 2022)

Columns and labels:
[1] = biological target: HLA-A*02 (Homo sapiens, UniProt P04439, D140Y/D185E/D98H/E176V/E277Q/G131W/G231S/I119V/I121R/I166T/I218V/L300P/L318F/N151K/N90K/P208A/P217A/Q86G/Q94H/R138H/R169H/T345S); test: HLA-A*02 binding prediction (ANN, Immune Epitope Database Analysis Resource); conditions: KLL epitope versus homologs of other polyomaviruses
From the text: Residues at positions 15, 18 and 20-22 (underlined) are highly divergent.

[2] = system: peptide loaded HLA-A*02:01 K562 cells; test: Proliferation of transduced T cells over 72 hours; type: cell-based; conditions: transduced CD8+ T cells
[3] = system: HLA-A*02:01 fibroblast cell lines transduced with MCPyV LT antigen; test: 4 hour chromium release assay, LT antigen transduced targets; type: cell-based; conditions: transduced CD8+ T cells
[4] = system: peptide loaded HLA-A*02:01 K562 cells; test: Effector cytokine secretion (IFNγ, IL-2, TNF) of transduced T cells; type: cell-based
From the text: (A) CD8 T cells were successfully transduced with codon-optimized MCC-specific TCR (MCC1).
The polynucleotide of one of the patient-derived class I high avidity TCR clones (MCC1) was codon optimized and transduced into CD8+ T and examined for their ability to activate […].

[5] = system: peptide loaded HLA-A*02:01 K562 cells; test: 4 hour chromium release assay, peptide loaded targets; type: cell-based; conditions: transduced CD8+ T cells
[6] = system: KLL-tetramer; test: KLL-tetramer staining of MCC1-transduced T cells after expansion; type: binding; conditions: CD8+ and CD4+ T cells transduced with codon-optimized TCR, expanded in culture for two weeks
[7] = biological target: T1, Merkel cell polyomavirus T antigen (common to large and small T antigen) peptide on HLA-A*02:01 (human); test: binding, other
T1 peptide: KLLEIAPNC

KLLEIAPNC [MCPyV] was tested, and the “predicted to bind to HLA-A*02 better than homologous peptides” value [1] was “approximately 100 ×”.

B1: MCC1: patient-derived class I high avidity MCPyV T antigen KLL-specific TCR, codon optimized and transduced into T cells (protein)
alpha: RKEVEQDPGPFNVPEGATVAFNCTYSNSASQSFFWYRQDCRKEPKLLMSVYSSGNEDGRFTAQLNRASQYISLLIRDSKLSDSATYLCVVATYSGGGADGLTFGKGTHLIIQPDIQNPDPAVYQLRDSKSSDKSVCLFTDFDSQTNVSQSKDSDVYITDKCVLDMRSMDFKSNSAVAWSNKSDFACANAFNNSIIPEDTFFPSPESSCDVKLVEKSFETDTNLNFQNLSVIGFRILLLKVAGFNLLMTLRLWSS
beta: DAGITQSPRYKITETGRQVTLMCHQTWSHSYMFWYRQDLGHGLRLIYYSAAADITDKGEVPDGYVVSRSKTENFPLTLESATRSQTSVYFCASSSGNPSTDTQYFGPGTRLTVLDLKNVFPPEVAVFEPSEAEISHTQKATLVCLATGFYPDHVELSWWVNGKEVHSGVCTDPQPLKEQPALNDSRYCLSSRLRVSATFWQNPRNHFRCQVQFYGLSENDEWTQDRAKPVTQIVSAEAWGRADCGFTSESYQQGVLSATILYEILLGKATLYAVLVSALVLMAMVKRKDSRG
In the case of B1, the proliferation [2] is reported as “readily proliferate”, the “specific killing of MCPyV LT antigen transduced targets” value [3] is reported as “specifically killed” and the “maximum percentage of transduced cells that secrete IFNγ, IL-2 and TNF” value ([4]; saturating levels of peptide (5 μg/mL), CD4+ versus CD8+ T cells) is reported as “similar”. For the same molecule, the “sensitivity to engage cytokine secretion” value ([4]; transduced CD4+ T cells) was “reduced sensitivity”, the effector cytokine production ([4]; transduced CD8+ T cells) was “make effector cytokines” and the “specific killing of peptide loaded targets” value [5] was “specifically killed”. The “tetramer positivity after expansion” value [6] was “remained tetramer positive”.

B2: MCC1H (TCR, V domains shown)
Valpha: QQQVKQSPQSLIVQKGGISIINCAYENTAFDYFPWYQQFPGKGPALLIAIRPDVSEKKEGRFTISFNKSAKQFSLHIMDSQPGDSATYFCAVPNTGNQFYFGTGTSLTVIP
Vbeta: GAGVSQSPRYKVAKRGQDVALRCDPISGHVSLFWYQQALGQGPEFLTYFQNEAQLDKSGLPSDRFFAERPEGSVSTLKIQRTQQEDSAVYLCASSLIAGLSYEQYFGPGTRLTVT
B2: recognises [7].
